# From US20200087363A1 (IMMATICS BIOTECHNOLOGIES, published 2020)
# Biological target: T1, HLA-B*44:05 (human)
# T1 construct: also called peptide-receptive MHC class I molecule
# Assay: UV peptide exchange, anti-b2m ELISA
# Experimental: Only peptide candidates that can effectively bind and stabilize the peptide-receptive MHC molecules prevent dissociation of the MHC complexes. To determine the yield of the exchange reaction, an ELISA was performed based on the detection of the light chain (β2m) of stabilized MHC complexes. The assay was performed as generally described in Rodenko et al. (Rodenko et al., 2006)
# 96 well MAXISorp plates (NUNC) were coated over night with 2 ug/ml streptavidin in PBS at room temperature, washed 4× and blocked for 1 h at 37° C. in 2% BSA containing blocking buffer. […] Peptide-MHC monomers of the UV-exchange reaction were diluted 100-fold in blocking buffer. Samples were incubated for 1 h at 37° C., washed four times, incubated with 2 ug/ml HRP conjugated anti-β2m for 1 h at 37° C., washed again and detected with TMB solution that is stopped with […]. Absorption was measured at 450 nm.
row,Binder,peptide exchange yield [%]
1,AELPENLKALF,50 to 75
2,MEELRMLSF,50 to 75
3,AEDEDGKIVGY,20 to 50
4,HEVAQDDHL,20 to 50
5,EEHSSKLQTSL,> 75
6,NESDRLVYF,50 to 75
7,TELEVKIRDW,> 75
8,AEFVPKADLL,50 to 75
9,EEIEAHIAL,50 to 75
10,TEDARHPESW,> 75
11,KELSVFKKF,50 to 75
12,KESDAGRYY,50 to 75
13,KESDAGKYY,50 to 75
14,TEHSGIYSC,20 to 50
15,TEANVQALF,> 75
16,NEAGEVSKHF,50 to 75
17,AEHDMKSVL,50 to 75
18,AETENRYCV,50 to 75

row,Binder,peptide exchange yield [%]
1,AEIATTGQLY,50 to 75
2,EKGLISAF,20 to 50
3,TELQIPSF,20 to 50
4,RENPGMFSW,50 to 75
5,QELFLHPVL,> 75
6,AETEPERHLG,20 to 50
7,VEEERYTGQW,50 to 75
8,LEALLSDLF,50 to 75
9,EEVQDGKVI,20 to 50
10,HENLIEDF,50 to 75
11,IEIILLSGSL,> 75
12,QEAPRPASSL,50 to 75
13,SQDVAGTTF,20 to 50
14,RMLSFQQMTW,20 to 50
15,DEDGKIVGY,20 to 50
16,GESSEVKAVL,50 to 75
17,RELRPLFDRQW,50 to 75

# Results, then the binder that gave them:
row,peptide exchange yield [%],Binder
1,> 75,KEMQVTISQQL
2,50 to 75,SEIYQPRGF
3,20 to 50,EELRMLSF
4,> 75,EEQDFINNRY
5,50 to 75,MEIKGTVTEF
6,20 to 50,MEHSDENIQFW
7,50 to 75,EAYDIELNKW
8,> 75,TEQALRLSV
9,20 to 50,EEHIFSAF
10,> 75,LEIMTNLVTL
11,> 75,ALNGDIYVW
12,> 75,EEQLLQKVM
13,10 to 20,LEEPMPFFY
14,50 to 75,MEGAALLKIF
15,50 to 75,IEAYLERIGY
16,50 to 75,AESDFSNNML
17,50 to 75,TEGDVLNYIF
18,20 to 50,EEGPSVPKIY

row,peptide exchange yield [%],Binder
1,> 75,KEHNSSVPWSS
2,> 75,KEAPNIVTL
3,> 75,REMFVFKDQW
4,50 to 75,SEHSLEGQKF
5,50 to 75,MEAELVRRI
6,50 to 75,REEEANVVL
7,50 to 75,EEMPEEIHL
8,50 to 75,DENDAGNLITF
9,50 to 75,GETQQHIQL
10,20 to 50,NEILTIHF
11,20 to 50,SEVFHVSEA
12,20 to 50,NEAGEMIKHY
13,50 to 75,HEIIIRSHW
14,50 to 75,EEIFAHLGL
15,> 75,EELHAALSEW
16,20 to 50,WEVVHTVF
17,50 to 75,SEKWFRMGF
